According to patent US20240383990A1 (DIAGONAL THERAPEUTICS, published 2024):
Where two headings read alike, the source gives them in different places.

B1: PRO003 (bispecific antibody)
chain: EVQLLESGGGLVQPGGSLRLSCAASGFTFSIYAMSWVRQAPGKGLEWVSAISGSGGSTYYADSVKGRFTISRDNSKNTLYLQMNSLRAEDTAVYYCARDFDYWGQGTLVTVTSSGGGGSGGGGSGGGGSQSVLTQPPSASGTPGQRVTISCSGSSSNIGSNYVYWYQQLPGTAPKLLIYGNINRPSGVPDRFSGSKSGTSASLAISGLRSEDEADYYCAAWDDSLNGRVFGGGTKLTVLDKTHTCPPCPAPEAAGAPSVFLFPPKPKDTLMISRTPEVTCVVVDVSHEDPEVKFNWYVDGVEVHNAKTKPREEQYNSTYRVVSVLTVLHQDWLNGKEYKCKVSNKALPAPIEKTISKAKGQPREPQVYTLPPSRDELTKNQVSLTCLVKGFYPSDIAVEWESNGQPENNYKTTPPVLDSDGSFFLYSKLTVDKSRWQQGNVFSCSVMHEALHNHYTQKSLSLSPGGGGGSGGGGSEVQLLESGGGLVQPGGSLRLSCAASGFTFSNAWMNWVRQAPGKGLEWVSSISSSSSYIYYADSVKGRFTISRDNSKNTLYLQMNSLRAEDTAVYYCARAVAAGGMFWGLDQWGQGTLVTVTSSGGGGSGGGGSGGGGSQSVLTQPPSASGTPGQRVTISCSGSRSNIGSNSVHWYQQLPGTAPKLLIYGNSNRPSGVPDRFSGSKSGTSASLAISGLRSEDEADYYCQSYDSSLNDHVVFGGGTKLTVL
B2: PRO004 (bispecific antibody)
chain: EVQLLESGGGLVQPGGSLRLSCAASGFTFSNAWMNWVRQAPGKGLEWVSSISSSSSYIYYADSVKGRFTISRDNSKNTLYLQMNSLRAEDTAVYYCARAVAAGGMFWGLDQWGQGTLVTVTSSGGGGSGGGGSGGGGSQSVLTQPPSASGTPGQRVTISCSGSRSNIGSNSVHWYQQLPGTAPKLLIYGNSNRPSGVPDRFSGSKSGTSASLAISGLRSEDEADYYCQSYDSSLNDHVVFGGGTKLTVLDKTHTCPPCPAPEAAGAPSVFLFPPKPKDTLMISRTPEVTCVVVDVSHEDPEVKFNWYVDGVEVHNAKTKPREEQYNSTYRVVSVLTVLHQDWLNGKEYKCKVSNKALPAPIEKTISKAKGQPREPQVYTLPPSRDELTKNQVSLTCLVKGFYPSDIAVEWESNGQPENNYKTTPPVLDSDGSFFLYSKLTVDKSRWQQGNVFSCSVMHEALHNHYTQKSLSLSPGGGGGSGGGGSEVQLLESGGGLVQPGGSLRLSCAASGFTFSIYAMSWVRQAPGKGLEWVSAISGSGGSTYYADSVKGRFTISRDNSKNTLYLQMNSLRAEDTAVYYCARDFDYWGQGTLVTVTSSGGGGSGGGGSGGGGSQSVLTQPPSASGTPGQRVTISCSGSSSNIGSNYVYWYQQLPGTAPKLLIYGNINRPSGVPDRFSGSKSGTSASLAISGLRSEDEADYYCAAWDDSLNGRVFGGGTKLTVL

Tests used:
[1] = target: T1, ALK1 / BMPRII receptor pair (BMPR Type I receptor ALK1 and BMPR Type II receptor BMPRII) on cells (UniProt P37023 22-503; Q13873 27-1038, limits assumed); experiment: cell-based or functional assay
T1 sequence (P37023 22-503 limits assumed, chain 1 of 2): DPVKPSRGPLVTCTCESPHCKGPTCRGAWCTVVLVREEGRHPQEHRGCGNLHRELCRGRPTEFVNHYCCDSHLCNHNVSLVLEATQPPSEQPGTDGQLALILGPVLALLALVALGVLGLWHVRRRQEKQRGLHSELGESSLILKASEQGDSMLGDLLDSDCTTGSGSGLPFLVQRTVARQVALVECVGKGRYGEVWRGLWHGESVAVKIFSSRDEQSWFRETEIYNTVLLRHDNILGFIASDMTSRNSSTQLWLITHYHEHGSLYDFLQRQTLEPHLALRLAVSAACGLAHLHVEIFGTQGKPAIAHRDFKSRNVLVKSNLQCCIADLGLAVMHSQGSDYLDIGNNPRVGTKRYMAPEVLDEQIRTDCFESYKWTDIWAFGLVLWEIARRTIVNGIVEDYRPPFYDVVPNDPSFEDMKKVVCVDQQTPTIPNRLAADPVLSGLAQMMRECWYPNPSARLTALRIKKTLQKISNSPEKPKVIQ
T1 sequence (Q13873 27-1038 limits assumed, chain 2 of 2): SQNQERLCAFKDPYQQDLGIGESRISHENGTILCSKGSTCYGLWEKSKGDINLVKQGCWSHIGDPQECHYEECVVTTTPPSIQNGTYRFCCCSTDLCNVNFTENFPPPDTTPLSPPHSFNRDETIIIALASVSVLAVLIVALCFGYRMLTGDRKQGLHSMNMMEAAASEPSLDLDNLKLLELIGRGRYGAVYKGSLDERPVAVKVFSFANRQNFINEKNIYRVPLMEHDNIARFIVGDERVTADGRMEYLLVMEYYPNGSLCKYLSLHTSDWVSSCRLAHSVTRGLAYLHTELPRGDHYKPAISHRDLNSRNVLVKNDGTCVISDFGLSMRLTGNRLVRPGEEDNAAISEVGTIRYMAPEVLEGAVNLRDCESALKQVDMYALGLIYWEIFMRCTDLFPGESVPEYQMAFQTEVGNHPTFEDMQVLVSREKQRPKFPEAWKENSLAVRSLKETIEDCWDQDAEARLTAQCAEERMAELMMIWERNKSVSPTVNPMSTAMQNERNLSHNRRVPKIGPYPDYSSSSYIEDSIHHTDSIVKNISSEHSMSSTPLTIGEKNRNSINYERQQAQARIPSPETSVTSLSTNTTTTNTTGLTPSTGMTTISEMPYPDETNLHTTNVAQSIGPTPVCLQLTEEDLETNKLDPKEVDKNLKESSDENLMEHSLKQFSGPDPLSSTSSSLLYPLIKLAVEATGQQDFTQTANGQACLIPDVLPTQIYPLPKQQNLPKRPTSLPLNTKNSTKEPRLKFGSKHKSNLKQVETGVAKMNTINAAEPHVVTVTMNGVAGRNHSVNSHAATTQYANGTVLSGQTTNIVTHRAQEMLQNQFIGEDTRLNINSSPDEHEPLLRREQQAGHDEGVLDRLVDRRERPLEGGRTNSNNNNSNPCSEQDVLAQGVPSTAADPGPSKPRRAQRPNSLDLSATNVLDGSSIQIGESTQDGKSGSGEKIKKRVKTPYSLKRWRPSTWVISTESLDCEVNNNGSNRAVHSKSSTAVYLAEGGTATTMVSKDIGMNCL

[2] = target: T1, ALK1 / BMPRII receptor pair (BMPR Type …); experiment: cell-based or functional assay; remark: listed apart in the source

Row | Binder | Agonist activity, % Emax BMP9 [1] [% Emax BMP9] | Agonist activity, EC50 [1] [nM] | Agonist activity, EMAX (RLU) [1] [RLU] | Agonist activity, % Emax BMP9 [2] [% Emax BMP9] | Agonist activity, EC50 [2] [nM] | Agonist activity, EMAX (RLU) [2] [RLU]
1 | B1 | 47 | 0.1 | 1.25e+06 | 47 | 0.1 | 1.25e+06
2 | B2 | 46 | 0.5 | 1.21e+06 | 46 | 0.5 | 1.21e+06
